Molecular target: T1, GST-ERRα1 (Homo sapiens) (UniProt P11474)
T1 sequence: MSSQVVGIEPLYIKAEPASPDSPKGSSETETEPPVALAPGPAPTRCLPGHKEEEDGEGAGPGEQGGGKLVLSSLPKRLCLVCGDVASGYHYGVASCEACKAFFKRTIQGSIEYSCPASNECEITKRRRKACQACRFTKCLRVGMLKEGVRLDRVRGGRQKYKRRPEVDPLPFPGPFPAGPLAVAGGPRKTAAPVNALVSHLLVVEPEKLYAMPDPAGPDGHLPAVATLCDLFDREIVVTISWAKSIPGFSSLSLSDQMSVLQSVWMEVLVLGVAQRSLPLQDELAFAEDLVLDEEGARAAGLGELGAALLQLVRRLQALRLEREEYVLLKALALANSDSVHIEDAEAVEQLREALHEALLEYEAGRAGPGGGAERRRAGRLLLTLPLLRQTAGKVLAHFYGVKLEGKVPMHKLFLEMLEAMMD
Conditions: cell-free transcription, HeLa nuclear extract, approximate

In the case of SV40 genome / late promoter template, the activity (fold repression) is reported as 3.

Reference: patent US20030152959
